{
  "source": "paper PMC11325815",
  "about": "(Journal of Hematology & Oncology, 2024)",
  "biological_target": "recombinant extracellular domain (ECD) of human IL1RAP (S21-E359) (Homo sapiens, UniProt Q9NPH3)",
  "sequence (Q9NPH3 21-359)": "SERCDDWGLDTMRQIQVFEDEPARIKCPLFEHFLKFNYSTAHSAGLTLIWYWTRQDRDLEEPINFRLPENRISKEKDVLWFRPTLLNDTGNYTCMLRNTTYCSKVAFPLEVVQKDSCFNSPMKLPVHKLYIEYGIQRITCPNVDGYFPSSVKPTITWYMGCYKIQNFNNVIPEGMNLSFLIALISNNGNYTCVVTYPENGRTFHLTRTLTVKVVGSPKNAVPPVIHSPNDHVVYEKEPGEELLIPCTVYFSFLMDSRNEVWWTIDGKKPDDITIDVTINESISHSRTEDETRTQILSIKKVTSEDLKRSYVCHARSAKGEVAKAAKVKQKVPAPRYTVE",
  "assay": "SPR",
  "data": [
    {"binder": "anti-IL1RAP-24 Fab (Fab, V domains shown) VH: QVQLQQSGPELVRPGVSVKISCKGSGYTFTDYAMHWVKQSHGKGLEWIGIISTYSGNTKFHQKFKGKATMTVDKSSSTAYMELARLTSEDSAIYYCARQGTWYFDVWGAGTTVTVSS VL: QIVLTQSPAIMSASPGEKVTMTCSASSTIIYIHWYQQKPGTSPKGWIYDTSKLASGVPARFSGSGSGTSYSLTISSMEAEDAATYYCHQRTSYPWTFGGGTKLEIK", "values": [
      {"measurement": "Kd", "value": 2.2, "unit": "nM"}
    ]}
  ]
}
